For 28 sequences, protein stability index results are on record in the supplement of paper PMC9732359.

± gives the uncertainty stated by the source.

The data set in a line: protein stability index of a GFP-peptide fusion (yeast GPS) (PSI 1-4); higher = more stable; sorted into four equal gates, so the index is relative within each strain. A digest of the protocol: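 Yeast carrying a pooled library were grown to mid-log phase in leucine-free medium. Each library plasmid expresses Cherry and has a tiled 17-residue yeast protein peptide fused downstream of GFP. Cells were sorted into four equal gates by GFP/Cherry ratio, and plasmids from each gate were PCR-amplified, Illumina-sequenced and assigned to strains by barcode. Summing, across gates, the read frequency times the gate number gave each peptide's protein stability index.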

For EITQQEKGLNELSIRDV [SMC4], the protein stability index was 1.75 ± 0.11 (doa10∆), 2.64 ± 0.076 (pdr5∆), 2.74 ± 0.089 (san1∆) and 1.85 ± 0.087 (ubr1∆).

GQNLKDLLVNFSAGAAA [RPP1A]: the protein stability index by setting is: (doa10∆) 2.27 ± 0.13; (pdr5∆) 2.18 ± 0.2; (san1∆) 2.02 ± 0.21; (ubr1∆) 2.13 ± 0.15.

For the sequence MANDLVQARDNSQVFGV [RPS14B], the protein stability index reads like this: (doa10∆) 2.39 ± 0.076; (pdr5∆) 2.36 ± 0.061; (san1∆) 2.81 ± 0.049; (ubr1∆) 2.97 ± 0.063.

On to MSNQALYEKLEQTRTIL [SRB6], for which the protein stability index (doa10∆) was 3.11 ± 0.3.

Regarding SNVYLSLVNSYIIDSPQ [COB], the protein stability index was determined as 1.76 ± 0.047 (doa10∆), 1.81 ± 0.056 (pdr5∆), 2.24 ± 0.071 (san1∆) and 1.71 ± 0.052 (ubr1∆).

On to TKGMITNLQRNVDRLYK [NUT2], for which the protein stability index was found to be 3.47 ± 0.29 (doa10∆), 3.35 ± 0.18 (pdr5∆), 2.69 ± 0.24 (san1∆) and 3.24 ± 0.16 (ubr1∆).

For the sequence DMKEYDSDKGSKLNELK [SMC2], the protein stability index was 3.25 ± 0.14 (doa10∆), 3.28 ± 0.1 (pdr5∆), 3.27 ± 0.072 (san1∆) and 3.29 ± 0.14 (ubr1∆).

SASFSLKNGDKPHLLKF [RPL6B]: the protein stability index is, setting by setting: (doa10∆) 2.4 ± 0.16; (pdr5∆) 2.42 ± 0.23; (san1∆) 3.25 ± 0.14; (ubr1∆) 3.42 ± 0.16.

LNLPLQFSLPNGDNSTT [SNF12] had a protein stability index (doa10∆) of 2.48 ± 0.047, a protein stability index (pdr5∆) of 1.99 ± 0.043, a protein stability index (san1∆) of 2.283 ± 0.013 and a protein stability index (ubr1∆) of 2.08 ± 0.038.

Consider VHDIFSKIFNESFPDDI [CDC53], for which the protein stability index worked out at 2.86 ± 0.069 (doa10∆), 2.91 ± 0.065 (pdr5∆), 2.87 ± 0.059 (san1∆) and 2.82 ± 0.06 (ubr1∆).

In the case of LKENEENEDGNIEERKE [BRR2], the protein stability index is 3.56 ± 0.27 (pdr5∆) and 3.13 ± 0.098 (san1∆).

As to TSCTIPKAVVDHINGSG [GAL11], the protein stability index turned out to be 2.23 ± 0.083 (doa10∆), 2.78 ± 0.077 (pdr5∆), 1.24 ± 0.12 (san1∆) and 1.79 ± 0.087 (ubr1∆).

With KLRGDLREAPADYWTHA [SNF6], the protein stability index was 3 ± 0.27 (pdr5∆) and 2.99 ± 0.12 (ubr1∆).

On to PALVGKLRGDLREAPAD [SNF6], for which the protein stability index reads like this: (doa10∆) 3.19 ± 0.21; (pdr5∆) 3.12 ± 0.19; (san1∆) 2.24 ± 0.19; (ubr1∆) 2.5 ± 0.17.

For the sequence TSSNIVLETHESGIKPY [RPT6], the protein stability index stood at 2.55 ± 0.097 (doa10∆), 2.76 ± 0.061 (pdr5∆), 2.68 ± 0.099 (san1∆) and 2.47 ± 0.061 (ubr1∆).

Consider GEPEAGNKALEDEEEFS [RPC34], for which the protein stability index reads like this: (doa10∆) 3.18 ± 0.13; (pdr5∆) 3.26 ± 0.26.

Regarding TKEVESNIITKSLVQYI [DIS3], the protein stability index turned out to be 2.71 ± 0.14 (doa10∆), 3.05 ± 0.11 (pdr5∆), 2.65 ± 0.076 (san1∆) and 2.87 ± 0.19 (ubr1∆).

On to EEQKSSDTSKPAFTFGA [YJL041W/NSP1], for which the protein stability index amounted to 3.25 ± 0.07 (doa10∆), 3.15 ± 0.06 (pdr5∆), 2.89 ± 0.059 (san1∆) and 3.23 ± 0.05 (ubr1∆).

Regarding QAQLRIDDKTQNDELTM [DIS3], the protein stability index reads like this: (doa10∆) 2.42 ± 0.085; (pdr5∆) 2.6 ± 0.07; (san1∆) 2.5 ± 0.073; (ubr1∆) 2.62 ± 0.088.

MSASNANDFQLTIVTCK [SRB8] showed a protein stability index (doa10∆) of 2.33 ± 0.044, a protein stability index (pdr5∆) of 2.41 ± 0.037, a protein stability index (san1∆) of 2.42 ± 0.043 and a protein stability index (ubr1∆) of 2.03 ± 0.031.

Consider EDLFDDYPSTSLDIRHD [NUT1], for which the protein stability index was determined as 1.81 ± 0.081 (doa10∆), 2.9 ± 0.077 (pdr5∆), 3.09 ± 0.058 (san1∆) and 2.05 ± 0.056 (ubr1∆).

For LSKRQKRKSAQEPELSL [SMC4], the protein stability index is, setting by setting: (doa10∆) 3.17 ± 0.11; (pdr5∆) 3.15 ± 0.078; (san1∆) 3.09 ± 0.097; (ubr1∆) 3.4 ± 0.1.

With NNAVRFSKQCLISNAIY [ECM29], the protein stability index reads like this: (doa10∆) 1.7 ± 0.078; (pdr5∆) 2.39 ± 0.088; (san1∆) 1.82 ± 0.11; (ubr1∆) 1.08 ± 0.094.

Turning to SSVKCFGPIKVELPTKE [FAS1], the protein stability index is, setting by setting: (doa10∆) 2.5 ± 0.069; (pdr5∆) 1.98 ± 0.05; (san1∆) 2.56 ± 0.057; (ubr1∆) 1.97 ± 0.057.

As to SYFKNSVIVKFHSEPDR [LIN1], the protein stability index reads like this: (doa10∆) 2.23 ± 0.062; (pdr5∆) 2.59 ± 0.075; (san1∆) 2.44 ± 0.067; (ubr1∆) 2.77 ± 0.047.

In the case of VEAIRRSNQYQRGKMHG [NUT2], the protein stability index reads like this: (doa10∆) 2.85 ± 0.085; (pdr5∆) 2.64 ± 0.076; (san1∆) 2.83 ± 0.11; (ubr1∆) 2.6 ± 0.099.

RRMGILKKILDQCKKQR [RPO31]: the protein stability index was 1.63 ± 0.16 (doa10∆), 1.7 ± 0.29 (pdr5∆), 1.61 ± 0.23 (san1∆) and 1.9 ± 0.098 (ubr1∆).

As to QSALSQIIRLFYSKNRL [ISW2], the protein stability index (doa10∆) turned out to be 2.62 ± 0.066, the protein stability index (pdr5∆) stood at 2.49 ± 0.059, the protein stability index (san1∆) came out at 1.87 ± 0.095 and the protein stability index (ubr1∆) turned out to be 2.61 ± 0.053.
